# Laboratory results from patent US20140271653A1 (Regeneron, published 2014).
# Positions count from the first letter of the chain named.
# B1: H1H3604P (antibody, V domains shown)
# VH: QVQLVESGGGLVKPGGSLRLSCAASGFTFSDYYMTWIRQAPGRGLEWVSYISDTGSHLYYADSVRGRFTISRDNAKNSLYLQMNNLRAEDTAVYYCARDQDGEMELRFFDYWGQGTLVTVSS
# VL: EIVLTQSPATLSLSPGERGTLSCRASQSINNYLAWYQQKPGQAPRLLIFDASNRATGIPARFSGSGSGTDFTLTISRIEPEDFAVYYCQQRTNWPLTFGGGTKVEIK
# B2: H1H3591P (antibody, V domains shown)
# VH: EVQLVESGGGLVQPGRSLRLSCAASGFTFDDYAMHWVRQTPGKGLEWISGISWSSGTIVYADSVKGRFTISRDNAKNSLYLQMNSLRGEDTALYHCAKDGYRWKSYSYGLDVWGQGTTVTVSS
# VL: EIVMTQSPATLSLSPGERATLSCRPSQSVINNLAWYQQKPGQAPRLLIFGASSRATGIPARFSGSGSGTEFTLTISSLQSEDFALYYCQQYNNWPLTFGGGTKVEIK
# B3: H1H3567P (antibody, V domains shown)
# VH: QVQLVQSGAEVKKPGASVKVSCKASGYTLTGYYLHWVRQAPGQGLEWMGWINPTSGGTNYAQKFQGRVTMTRDTSISAAFMELSRLRSDDTAVYHCAREFWPHGMDVWGQGTTVTVSS
# VL: AIQMTQSPSSLSASVGDRVTITCRASQAIRNDLGWYQQKPGKAPKLLIYASSSLQSGVPSRFSGSGSGTDFTLTISSLQPEDFATYYCLADYKYTWTFGQGTKVEIK
# B4: H1H3583P (antibody, V domains shown)
# VH: QVQLVQSGAEVKKSGSSVKVSCKASGGTFSSYAISWVRQAPGQGLEWMGGIIPIFGTGNYAQKFQGRVTITTDESTSTAYMELSSLRSEDTAVYYCARDSSSSPRYYGMDVWGHGTTVTVSS
# VL: EIVLTQSPATLSLSPGERATLSCRASQSVTSYLAWYQQKPGQAPRLLIYDVSKRATGIPARFSGSGSGTDFTLTISSLEPEDFATYYCQQRSNWPPTFGQGTRLEIK
# B5: H1H3592P (antibody, V domains shown)
# VH: EVQLVESGGDLVQPGRSLRLSCVASGFTFDDYAMHWVRQAPGKGLEWVSGVSWSGSTVGYADSVKGRFTVSRDNAQKSLYLQMNSLRAEDTALYYCVKDAYKWNYYYYGLDVWGQGTTVTVSS
# VL: EIVMTQSPATLSVSPGERATLSCRASQTILSNLAWYLQKPGQAPRLLIYGASTRATGLPARFSGSGSGTEFTLTISSLQSEDFAVYYCQQYNNWPLTFGGGTKVEIK
# B6: H1H3605P (antibody, V domains shown)
# VH: QVQLQESGPGLVKPSETLSLTCTVSGGFISNYYWSWIRQPPGKGLEWIGYIYYSGSTKYNPSLKSRVTISVDTSKNQFSLKLSSVSAADTAVYYCARDGVVAAAGPPYHYHYGLDVWGQGTTVTVSS
# VL: DIVMTQSPDSLAVSLGERATINCKSSQNLLYTSSNKNSLAWYQQKPGQPPELLIYWASTRESGVPDRFSGSGSGTDFILTISSLQAEDVAVYYCQQYYSSPWTFGQGTKVEIK
# B7: H1H3564P (antibody, V domains shown)
# VH: QVQLVQSGAEVKKPGSSVKVSCKASGGTLSNNAFSWVRQAPGQGLEWLGGFNPIFDTANYAQKFQGRITITLDASTGTVYMELSSLRSEDTGVYYCAGTGAHFEFWGQGTLVTVSS
# VL: DIQMTQSPSSLSASVGDRVTITCRTSQSISTYLNWYQQKPGKAPKFLIYAASTLQSGVPSRFSGSGSRTDFTLTISSLQPEDFATYYCQQSVSVPYTFGQGTKLEIK
# B8: H1H3589P (antibody, V domains shown)
# VH: EVQLVESGGGLVQPGGSLRLSCEASGFTFSTYWMSWVRQAPGKGLEWVANIKQDGSVKYFVDSVKGRFTVSRDNAKNSLYLQMNSLRAEDTALYHCARERHRGSYYGYYDGMDVWGQGTTVTVSS
# VL: DIQMTQSPSSLSASVGDRVTITCRASQNIDIYLNWYQERPGKAPNLLIYAASSLQSGVPSRFSGSGSGTDFTLTISSLQPEDFATYYCQQSYNTPFTFGGGTKVEIK
# B9: H1H3608P2 (antibody, V domains shown)
# VH: QVQLVESGGGVVQPGRSLRLSCAASGFTFSSYGMHWVRQAPGKGLEWVAVIYYEGSNDYYVDSVKGRFTISRDNSKNTLYLQMNSLRAEDTAVYYCARRDWNSFDYWGQGTLVTVSS
# VL: DIVMTQSPLSLSVTPGEPASISCRSSQNLLNRNGFNYLDWYLQKPGQSPQLLIYLGSNRASGVPDRFSGSGSGTDFTLKISRVEVEDVGVYYCMQAIQTPYTFGQGTKLEIK
# B10: H1M3621N (antibody, V domains shown)
# VH: QVQLEQSGAEVKKPGASVRISCKASGDTFTGYYINWVRQAPGQGLEWMGWINTNSGGTYFSQKFQVRVILTRDTSINTAYMELSRLRSDDTAVYYCARMFYDILTNSDIFDIWGQGTMVTVSS
# VL: DIQMTQSPSSLSASVGDRVTITCRASQDIRNDLGWYQQKPGKAPKCLIYGASSLQSGVPSRFSGSGSGTEFTLTISSLQPEDFATYYCLQHKNYMYTFGQGTKLEIK
# B11: H1H3565P (antibody, V domains shown)
# VH: QVQLVESGGGVVQPGRSLRLSCAASGFTFNSYGMHWVRQAPGKGLEWVTFIWSDGSNKYYLDSVKGRFTISRDNSKNTLYLQMNSLRAEDTAVYYCARSGLASYYYYGMDVWGQGTTVTVSS
# VL: B10 VL with D28G, C46R, Y87S, K92N, N93S, M95P, Y96W, L104V
# B12: H1H3566P (antibody, V domains shown)
# VH: B11 VH with N30S, T49V, I51L, S53Y, Y59H, L61A, G108S
# VL: B10 VL with D28G, G34A, C46R, Q55H, Y87S, K92N, N93S, M95P, Y96W, L104V
# B13: H1H3597P (antibody, V domains shown)
# VH: EVQLVESGGGLVQPGGSLRLSCGASGFTFRDFDMNWVRQAPGRGLEWVSGIGGSGGNTYYADSVKGRFTISRDNSKNTLFLQMSSLRAEDTAVYYCVKDPYGDYRNYYGMDVWGQGTTVTVSS
# VL: DIVMTQSPLSLPVTPGEPASISCRSSQSLLHSNGYNYLDWYLQKPGQSPQLLIYLGSNRASGVPDRFRGSGSDKDFTLKISRVGAEDVGVYYCMQALQTITFGQGTRLEIK
# B14: H1H3598P (antibody, V domains shown)
# VH: EVQLVESGGGLGQPGGSLRLSCGASGFMFRNYAMSWVRQAPGKGLEWVSTILDSGDNTYYADSVKGRFTISRDNSKNTLYLQMNSLRAEDTAVYYCAKDPYGDYRDYYGMDVWGQGTTVTVSS
# VL: B13 VL with D73G, G84E, V90L
# B15: H1H3603P (antibody, V domains shown)
# VH: QVQLQESGPGLVKPSETLSLTCTVSGGSISGYYWTWIRQPPGKGLEWIGYIYYSGATNYNPSLKSRVTISLDTSKNQFSLKLSSVTAADTAVYYCARDGNYDILTGYYNYHYYGMDVWGQGTTVTVSS
# VL: DIQMTQSPSSLSASVGDRVTITCRASQDIGNYLAWFQQKPGKAPESLIYAASILQSGVPSKFSGSGSGTDFTLTISSLQPEDFATYYCQQYNTFPWTFGQGTKVEIK
# B16: H1H3581P (antibody, V domains shown)
# VH: EVQLVESGGGLVHPGGSLRLSCEASGFTLSSHVMSWVRQVPGKGLEWVSRISGPGGSTKYADSVQGRFTTSRDNSKNTLYLQMNSLIAEDSAAYYCAKGGGYSGYDWDFYYGMDVWGQGTTVTVSS
# VL: DIQMTQSPSSVSASVGDRVTITCRASQGISSWLAWYQQKPGKAPKLLIYAASSLQSGVPSRFSGSGSGTDFTLTISSLQPEDFATYYCQQTNSFPLTFGGGTKVDIK
# B17: H1H3607P (antibody, V domains shown)
# VH: QVQLVESGGGLVKPGGSLRLSCAASGFTFSDYYMTWIRQVPGKGLEWVSYISSTGNNRYYGDSVKGRFAISRDNAKNLLFLQMNSLKAEDTAVYYCARENNWNPYFFYYGMDVWGQGTTVTVSS
# VL: B16 VL with S31I, Y49S, S53T, T91A, G100Q, D105E
# B18: H1H3592P2 (antibody, V domains shown)
# VH: B5 VH with W103Y
# VL: B5 VL
# Molecular target: RSV-F of RSV subtype A strain A2 (1540) (respiratory syncytial virus subtype A, …, UniProt P03420 26-574)
# Experiment: cell-based or functional assay
Binder,"IC50 [pM] for RSV A2 Neutralization, Trial 1","IC50 [pM] for RSV A2 Neutralization, Trial 4","IC50 [pM] for RSV A2 Neutralization, Trial 6","IC50 [pM] for RSV A2 Neutralization, Trial 7","IC50 [pM] for RSV A2 Neutralization, Trial 5","IC50 [pM] for RSV A2 Neutralization, Trial 2"
B1,> 10000 pM,–,–,–,–,–
B2,–,6 pM,8 pM,6 pM,–,–
B3,–,257 pM,390 pM,–,–,–
B4,–,–,–,–,50 pM,–
B5,–,6 pM,5 pM,4 pM,–,–
B6,> 10000 pM,–,–,–,–,–
B7,> 10000 pM,–,–,–,–,–
B8,–,–,–,–,300 pM,–
B9,> 10000 pM,–,–,–,–,–
B10,582 pM,–,–,–,–,180 pM
B11,> 10000 pM,–,–,–,–,–
B12,> 10000 pM,–,–,–,–,–
B13,> 10000 pM,–,–,–,–,–
B14,> 10000 pM,–,–,–,–,–
B15,> 10000 pM,–,–,–,–,–
B16,> 10000 pM,–,–,–,–,–
B17,> 10000 pM,–,–,–,–,–

# Molecular target: T1, RSV-F.mmh (Respiratory Syncytial Virus)
# T1 construct: also called recombinant RSV-F; soluble monomeric RSV-F
# Experiment: SPR (Biacore), mAb captured via Fc, soluble RSV-F.mmh injected, 25 C
Binder,Kd,koff,kon,t½
B10,1.01 nM,0.000208 s⁻¹,205000 M⁻¹ s⁻¹,0.933 h

# Molecular target: T1, RSV-F.mmh
# Experiment: as above
# Remark: another data set of the same source
Binder,Kd,koff,kon,t½,binding result
B1,30 nM,9.27e-05 s⁻¹,3100 M⁻¹ s⁻¹,2.08 h,–
B2,34.2 nM,0.00153 s⁻¹,44600 M⁻¹ s⁻¹,0.133 h,–
B3,43.4 nM,0.00263 s⁻¹,60500 M⁻¹ s⁻¹,0.0667 h,–
B4,34.4 nM,0.00308 s⁻¹,89400 M⁻¹ s⁻¹,0.0667 h,–
B5,4.39 nM,0.000466 s⁻¹,106000 M⁻¹ s⁻¹,0.417 h,–
B18,14.7 nM,0.00146 s⁻¹,99300 M⁻¹ s⁻¹,0.133 h,–
B6,59 nM,0.000168 s⁻¹,2800 M⁻¹ s⁻¹,1.15 h,–
B7,25 nM,7.78e-05 s⁻¹,3100 M⁻¹ s⁻¹,2.47 h,–
B8,243 nM,0.00914 s⁻¹,37700 M⁻¹ s⁻¹,0.0167 h,–
B9,5.35 nM,2.6e-05 s⁻¹,4850 M⁻¹ s⁻¹,7.42 h,–
B11,3.01 nM,5.8e-05 s⁻¹,19300 M⁻¹ s⁻¹,3.32 h,–
B12,2.06 nM,4.2e-05 s⁻¹,20400 M⁻¹ s⁻¹,4.58 h,–
B13,–,–,–,–,no binding
B14,–,–,–,–,no binding
B15,41 nM,0.000123 s⁻¹,3000 M⁻¹ s⁻¹,1.57 h,–
B16,–,–,–,–,no binding
B17,35 nM,0.000148 s⁻¹,4200 M⁻¹ s⁻¹,1.3 h,–
